Residue numbers refer to the chain shown, from its start.
B1: 35PA83 6.20 G1 (antibody, V domains shown)
VH: QVQLQESGPGLVKPSETLSLTCTVSGDSISGGYYWGWIRQSPGKGLEWIGLIYGSTADTRYNPSLKGRVTISKDTSKNQFSLKLSSVTAADTAVYYCARSGYNFWSGEYYGLDSWGQGTLVTVSS
VL: AIQLTQSPSSLSAYVGDRVTITCHASQGINSWLAWYQQKPGKAPKLLIYKASSLLSGVPSRFSGSGSGTDFTLTISSLQSEDFATYYCLQYDSAPLAFGPGTKLEIK
notes: also called mutant that combined the 10 selected mutations; source: expressed and purified by Proteogenix
B2: 35PA83 6.20 (parental antibody of the super-humanization) (antibody, V domains shown)
VH: B1 VH with V12L, T23A, G36S, F80L, K83Q, S85R, T119A, L120V
VL: B1 VL with R18K, F71Y, T85S, E105D
notes: also called the parental antibody; 35PA80 6.20
B3: 35PA83 6.20 IgG1 (GMP batch) (antibody, V domains shown)
VH: B1 VH with V12L, T23A, G36S, F80L, K83Q, S85R, T119A, L120V
VL: B1 VL with R18K, F71Y, T85S, E105D
notes: also called IgG 35PA83 6.20; 35PA83 6.20 mAb; source: rat YB2/0-E cell line (LFB), GMP conditions

Assays:
Details in all cases: both partners purified
[1] = target: Protective Antigen PA83 (83 kDa) of Bacillus anthracis (Bacillus anthracis, strain of …, UniProt P13423); assay: SPR
Sequence of Protective Antigen PA83 (83 kDa) of Bacillus anthracis (P13423 whole entry, looked up): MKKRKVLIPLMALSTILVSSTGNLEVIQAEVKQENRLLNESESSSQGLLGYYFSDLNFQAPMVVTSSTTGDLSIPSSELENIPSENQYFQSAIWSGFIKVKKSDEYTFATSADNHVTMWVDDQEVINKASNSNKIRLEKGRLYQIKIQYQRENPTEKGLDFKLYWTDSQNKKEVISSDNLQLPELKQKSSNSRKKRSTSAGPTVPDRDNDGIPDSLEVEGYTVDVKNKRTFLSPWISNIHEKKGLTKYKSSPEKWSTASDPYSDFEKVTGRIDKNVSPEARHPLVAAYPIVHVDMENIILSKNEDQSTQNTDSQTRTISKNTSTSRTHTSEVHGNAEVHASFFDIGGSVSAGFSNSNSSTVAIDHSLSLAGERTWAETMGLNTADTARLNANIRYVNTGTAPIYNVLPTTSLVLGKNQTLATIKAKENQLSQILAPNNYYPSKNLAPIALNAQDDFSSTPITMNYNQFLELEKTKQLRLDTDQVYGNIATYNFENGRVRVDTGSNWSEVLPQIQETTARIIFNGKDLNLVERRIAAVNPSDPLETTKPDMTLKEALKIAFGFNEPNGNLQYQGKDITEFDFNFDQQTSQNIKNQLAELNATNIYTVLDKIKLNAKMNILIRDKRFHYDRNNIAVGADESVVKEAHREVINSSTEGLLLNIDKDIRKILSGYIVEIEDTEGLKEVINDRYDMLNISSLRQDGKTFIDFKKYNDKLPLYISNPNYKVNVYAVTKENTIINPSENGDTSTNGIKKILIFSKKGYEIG

[2] = target: T1, PA83 peptide PLYISNPNY (domain IV) (Bacillus anthracis); assay: peptide or protein array
T1 chain: PLYISNPNY

[3] = target: T2, PA83 region YTVDVKNKRTFLSPWI (domain I) (Bacillus anthracis); assay: peptide or protein array
T2 chain: YTVDVKNKRTFLSPWI

| Binder | Kd [1] [nM] | binding result [2] | binding result [3] |
| --- | --- | --- | --- |
| B1 | 0.316 |  |  |
| B2 | 0.18 |  |  |
| B3 |  | binds | binds |

Reference: publication PMC8955606 (Toxins, 2022)
